Test results taken from patent US20260146094A1 (CHIA TAI TIANQING PHARMACEUTICAL GROUP, published 2026).

What was measured:
[1] = biological target: human c-Met on natural human tumor cell lines (H1993, MKN45, KP4, H441) (human, UniProt P08581 25-1390); assay: cell-based or functional assay
[2] = biological target: T1, macaque c-Met on macaque epithelial cell 4MBr-5 (macaque); assay: flow cytometry on 4MBr-5 macaque epithelial cells
T1 construct: whole, on cells; also called 4MBr-5 cell

[3] = biological target: T2, Human c-Met-His (SinoBiological, product catalog No. 10692-H08H) (human, UniProt P08581 25-932); assay: competitive ELISA, coated human c-Met-His, blocking of HGFβ
T2 construct: Bought protein; also called human c-Met-His protein; c-Met-His protein; not shown: His tag
Protocol: (§1) After the plate was washed, an HRP-conjugated streptavidin (eBioscience, product catalog No. 18-4100-51) was added. The plate was incubated at 25° C. for 1 h and then washed 5 times, and a TMB substrate solution (TIANGEN, product catalog No. PA107) was added at 100 μL/well for color development. The light absorption signal values at the wavelength of 450 nm and the reference wavelength of 650 nm were measured. A curve (FIG. 2A) was fit, and the IC₅₀ values (Table 4) were calculated.
A curve (FIG. 2B) was fit based on the results, and the IC₅₀ values were calculated (Table 4).

[4] = biological target: T2, Human c-Met-His (SinoBiological, …); assay: competitive ELISA, coated human c-Met-His, blocking of biotin-HGF
Protocol: as §1

T2 sequence (P08581 25-932 limits assumed): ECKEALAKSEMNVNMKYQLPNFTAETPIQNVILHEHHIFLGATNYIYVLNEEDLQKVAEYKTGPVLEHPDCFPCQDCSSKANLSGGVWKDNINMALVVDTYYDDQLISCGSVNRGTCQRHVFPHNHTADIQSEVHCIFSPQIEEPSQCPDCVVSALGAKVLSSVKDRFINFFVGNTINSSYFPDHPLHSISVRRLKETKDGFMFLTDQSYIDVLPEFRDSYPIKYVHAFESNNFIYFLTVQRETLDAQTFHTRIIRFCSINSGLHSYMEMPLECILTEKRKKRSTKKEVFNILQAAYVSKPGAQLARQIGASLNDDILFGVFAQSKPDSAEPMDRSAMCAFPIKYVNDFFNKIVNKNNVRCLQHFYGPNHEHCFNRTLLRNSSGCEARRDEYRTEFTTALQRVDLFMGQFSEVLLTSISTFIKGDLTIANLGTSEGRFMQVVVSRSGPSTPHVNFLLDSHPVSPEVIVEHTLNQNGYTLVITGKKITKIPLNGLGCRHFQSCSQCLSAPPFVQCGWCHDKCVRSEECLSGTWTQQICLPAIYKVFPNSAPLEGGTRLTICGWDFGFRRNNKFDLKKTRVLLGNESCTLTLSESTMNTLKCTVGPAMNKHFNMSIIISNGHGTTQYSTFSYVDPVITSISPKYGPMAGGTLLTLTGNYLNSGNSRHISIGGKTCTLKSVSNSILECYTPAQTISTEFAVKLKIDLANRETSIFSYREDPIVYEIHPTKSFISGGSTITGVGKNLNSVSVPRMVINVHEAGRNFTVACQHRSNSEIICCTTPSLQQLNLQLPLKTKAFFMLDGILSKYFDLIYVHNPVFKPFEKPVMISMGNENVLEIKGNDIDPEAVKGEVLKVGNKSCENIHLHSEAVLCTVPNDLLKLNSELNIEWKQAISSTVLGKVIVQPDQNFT
Chain of human c-Met on natural human tumor cell lines (H1993, MKN45, KP4, H441) (P08581 25-1390): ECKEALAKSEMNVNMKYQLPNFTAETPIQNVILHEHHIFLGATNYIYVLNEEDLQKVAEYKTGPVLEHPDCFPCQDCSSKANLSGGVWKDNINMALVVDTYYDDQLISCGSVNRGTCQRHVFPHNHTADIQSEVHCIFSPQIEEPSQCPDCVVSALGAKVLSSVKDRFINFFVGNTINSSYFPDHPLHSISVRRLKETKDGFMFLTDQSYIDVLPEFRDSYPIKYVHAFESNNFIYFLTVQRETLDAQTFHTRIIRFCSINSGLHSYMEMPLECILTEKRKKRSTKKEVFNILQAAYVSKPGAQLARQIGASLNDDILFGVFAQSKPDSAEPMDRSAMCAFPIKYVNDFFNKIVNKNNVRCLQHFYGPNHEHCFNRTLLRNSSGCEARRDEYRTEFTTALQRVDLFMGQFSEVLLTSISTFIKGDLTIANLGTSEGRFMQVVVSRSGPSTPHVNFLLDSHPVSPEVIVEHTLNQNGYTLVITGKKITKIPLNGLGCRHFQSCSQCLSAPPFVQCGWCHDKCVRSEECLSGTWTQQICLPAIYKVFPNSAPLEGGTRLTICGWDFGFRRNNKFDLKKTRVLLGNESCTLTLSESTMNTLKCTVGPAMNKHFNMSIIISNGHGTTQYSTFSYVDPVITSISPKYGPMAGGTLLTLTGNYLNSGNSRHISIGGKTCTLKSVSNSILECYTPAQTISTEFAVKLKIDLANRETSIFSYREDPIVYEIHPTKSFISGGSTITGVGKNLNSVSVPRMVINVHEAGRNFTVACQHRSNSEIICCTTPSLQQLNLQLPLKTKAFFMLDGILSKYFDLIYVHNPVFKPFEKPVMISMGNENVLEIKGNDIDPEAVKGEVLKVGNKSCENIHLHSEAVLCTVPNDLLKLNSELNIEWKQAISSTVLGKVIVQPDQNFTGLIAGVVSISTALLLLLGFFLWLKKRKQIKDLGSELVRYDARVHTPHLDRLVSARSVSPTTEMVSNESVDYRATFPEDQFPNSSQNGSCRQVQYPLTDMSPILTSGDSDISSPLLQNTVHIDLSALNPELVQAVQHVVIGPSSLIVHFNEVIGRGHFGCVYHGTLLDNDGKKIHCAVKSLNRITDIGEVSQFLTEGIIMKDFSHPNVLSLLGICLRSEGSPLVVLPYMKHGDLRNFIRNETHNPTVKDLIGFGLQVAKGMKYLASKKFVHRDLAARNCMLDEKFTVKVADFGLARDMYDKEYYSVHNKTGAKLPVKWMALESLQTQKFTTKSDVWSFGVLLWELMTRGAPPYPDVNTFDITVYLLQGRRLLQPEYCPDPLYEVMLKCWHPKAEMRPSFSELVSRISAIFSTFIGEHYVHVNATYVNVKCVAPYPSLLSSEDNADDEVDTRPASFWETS

| Binder | EC50 [2] [nM] | other results |
| --- | --- | --- |
| 1B-1A8-Fc (antibody, human IgG1, V domains shown, also called anti-human c-Met VHH-Fc chimeric antibody 1B-1A8-Fc) VH: EVQLVESGGGLVQPGGSLRLSCVASGFTFKSYAMDWVRQAPGKGLEWIAGINSAGSPSYEASVKGRFTISRDNAENTLYLQLNSLKTEDTAMYYCTKCRDFRSPYCRPGQGTLVTVSS | 0.471 | Phosphorylation inhibition IC50 (nM), H441 cells, Phospho-c-Met (Tyr1234/1235) AlphaLISA [1]: 0.85 nM; Phosphorylation inhibition, Maximum inhibition rate, H441 cells [1]: 90%; IC50 [3]: 3.56 nM; Maximum blocking rate [3]: 75%; IC50 [4]: 3.14 nM; Maximum blocking rate [4]: 63% |
| 1B-1B2-Fc (antibody, human IgG1, V domains shown, also called anti-human c-Met VHH-Fc chimeric antibody 1B-1B2-Fc) VH: EVQLVESGGGSVQAGGSLRLSCTASGFTFDMGWYRQAPGDECELVSSISSDGNSDYLDSVKGRFTISQDNAKNTVYLQMNSLKPEDTAVYYCAANGAGHLVLRPLCGSNAVDAWGQGTLVTVSS | 0.418 | – |

Now from value to binder, other results behind:

| EC50 [2] [nM] | Binder | other results |
| --- | --- | --- |
| 0.682 | 1B-1B6-Fc (antibody, human IgG1, V domains shown, also called anti-human c-Met VHH-Fc chimeric antibody 1B-1B6-Fc) VH: QVQLVESGGDSVQAGGSLRLSCAASAHAYSSGCMGWFRQAPGKGREGVATIYTRNDFTYYSDSVKGRFTISRDDAKNTVYLQVNSLKAEDTAMYYCAAGSPFRYAGAWNVCGLKEEDYNYWGQGTLVTVSS | – |
| 0.284 | 3B-1C7-Fc (antibody, human IgG1, V domains shown, also called anti-human c-Met VHH-Fc chimeric antibody 3B-1C7-Fc) VH: QVQLVESGGDSVQAGGSLRLSCIASGFTFDGTTMGWYRQAPGDECELVSDISSDGNTYYSDSVKGRFTISQGNAKNTVYLQMNSLTPEDTAVYYCAAAEFRLLLRPLCRQDDYGYWGQGTLVTVSS | – |
| 0.736 | 1B-3B11-Fc (antibody, human IgG1, V domains shown, Expressed in CHO; also called anti-human c-Met VHH-Fc chimeric antibody 1B-3B11-Fc) VH: QVQLVESGGGSVQAGGSLRLSCVVSGYTYSSVAWFRQTPGKEREGVAVINPGGDNTDYTYAVKGRFTISRDSAKSTVFLQMNNLESEDTAMYYCAAGRTFGGTWMDRNKWKYWGQGTLVTVSS | – |
| 0.071 | 1B-1C7-Fc (antibody, human IgG1, V domains shown, also called anti-human c-Met VHH-Fc chimeric antibody 1B-1C7-Fc) VH: QVQLVESGGGLVQPGGSLRLSCAASGYSYSANCVGWFYQAPGKEREGVAAINTGGETATYADFVKGRFTISQDYAKNTVYLQMNSLKSEDTGMYYCAAVGTRKYWDECSLSQHAYKNWGQGTLVTVSS | – |
